From patent publication US20230250157A1

Key:
Assay in all cases: ELISA
BtKY72 RBD = target: BtKY72 RBD
RaTG13 RBD = target: RaTG13 RBD
SHC014 RBD = target: SHC014 RBD
Rf1 RBD = target: Rf1 RBD
Yun11 RBD = target: Yun11 RBD
LyRa3 RBD = target: LyRa3 RBD
BM4831 RBD = target: BM4831 RBD
Pang17 RBD = target: Pang17 RBD
Khosta2 RBD = target: Khosta2 RBD
Rs4081 RBD = target: Rs4081 RBD
RmYN02 RBD = target: RmYN02 RBD
RsSTT200 RBD = target: RsSTT200 RBD

Measured: EC50

C144 IgG
> 10 µg/mL: BtKY72 RBD | RaTG13 RBD | SHC014 RBD | Rf1 RBD | Yun11 RBD | LyRa3 RBD | BM4831 RBD | Pang17 RBD | Khosta2 RBD | Rs4081 RBD | RmYN02 RBD

S309 IgG
> 10 µg/mL: BtKY72 RBD | Rf1 RBD | Yun11 RBD | Rs4081 RBD | RmYN02 RBD

C102 IgG
> 10 µg/mL: BtKY72 RBD | RsSTT200 RBD | SHC014 RBD | Rf1 RBD | Yun11 RBD | LyRa3 RBD | BM4831 RBD | Pang17 RBD | Khosta2 RBD | Rs4081 RBD | RmYN02 RBD
